In publication PMC6802964:

How the values were obtained:
Assay in all cases: other fluorescence titration; change of the CyPet-YPet FRET signal of the IQ-FRET protein (1 µM by the methods, 0.5 µM by the legend) with varying concentrations of Cam1 or Cam2; 140 mM KCl, 20 mM MOPS pH 7.0, with or without 2 mM MgCl2, 2 mM EGTA (absence of calcium)
[1] = target: CyPet–Myo1^IQ12S742D–YPet FRET reporter protein (S742D phosphomimetic) (S. pombe)
[2] = target: T1, CyPet–Myo1^IQ12–YPet FRET reporter protein (S. pombe)
T1 sequence (Q9Y7Z8 whole entry, looked up): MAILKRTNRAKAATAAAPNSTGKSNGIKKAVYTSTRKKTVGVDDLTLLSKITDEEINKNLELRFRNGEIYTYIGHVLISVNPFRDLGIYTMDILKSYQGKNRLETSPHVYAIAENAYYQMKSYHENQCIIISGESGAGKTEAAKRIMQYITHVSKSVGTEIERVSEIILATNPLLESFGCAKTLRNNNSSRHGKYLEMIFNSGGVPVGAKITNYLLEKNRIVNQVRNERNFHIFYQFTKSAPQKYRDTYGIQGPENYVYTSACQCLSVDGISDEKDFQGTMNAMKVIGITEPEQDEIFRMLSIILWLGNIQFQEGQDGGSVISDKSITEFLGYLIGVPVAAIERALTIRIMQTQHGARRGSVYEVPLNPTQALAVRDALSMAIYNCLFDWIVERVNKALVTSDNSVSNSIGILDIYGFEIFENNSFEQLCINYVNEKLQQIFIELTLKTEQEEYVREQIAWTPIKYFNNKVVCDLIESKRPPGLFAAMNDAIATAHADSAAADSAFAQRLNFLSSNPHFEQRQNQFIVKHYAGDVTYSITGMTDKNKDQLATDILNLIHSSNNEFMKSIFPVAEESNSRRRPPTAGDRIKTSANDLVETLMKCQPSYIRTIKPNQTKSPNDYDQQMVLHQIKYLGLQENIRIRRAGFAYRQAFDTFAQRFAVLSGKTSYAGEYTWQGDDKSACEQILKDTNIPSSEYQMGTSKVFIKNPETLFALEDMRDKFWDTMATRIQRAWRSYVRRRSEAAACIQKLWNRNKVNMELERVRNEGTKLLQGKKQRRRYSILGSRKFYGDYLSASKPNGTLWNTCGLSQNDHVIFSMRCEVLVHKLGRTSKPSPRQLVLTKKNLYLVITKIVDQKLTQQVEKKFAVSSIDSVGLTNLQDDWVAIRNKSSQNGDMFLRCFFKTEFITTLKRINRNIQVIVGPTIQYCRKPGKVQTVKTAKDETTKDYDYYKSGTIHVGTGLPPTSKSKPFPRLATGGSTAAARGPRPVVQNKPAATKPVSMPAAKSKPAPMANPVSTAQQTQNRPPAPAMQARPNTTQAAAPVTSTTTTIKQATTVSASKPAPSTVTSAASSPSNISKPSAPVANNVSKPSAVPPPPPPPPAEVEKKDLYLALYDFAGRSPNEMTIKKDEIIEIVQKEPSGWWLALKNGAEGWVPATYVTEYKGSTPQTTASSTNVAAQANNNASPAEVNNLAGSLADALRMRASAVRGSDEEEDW

[3] = target: T2, CyPet–Myo1^IQ1–YPet FRET reporter protein (S. pombe)
T2 sequence (Q9Y7Z8 whole entry, looked up): T1 sequence (Q9Y7Z8 whole entry, looked up)

drop in interaction against wild type Myo1^IQ12–FRET [1]: 50%
KD of the binding event that gives 70% of the signal change [2]: 1100 nM
stoichiometry N [2]: 2
Kd [3]: 400 nM
B1: Cam2 (calcium-insensitive calmodulin-like protein) (natural protein)
chain: MPASKEQTDEMKEAFVLYDIDKDGLIPTSHVGSVLRSLGINVTDAELAKLSNELGDAIDEKKFMSFVSNKLRETESEEEYIKAFRVFDKDNSGYIETAKFADYMKTLGEKLSDNEVQLMVQEADPTNSGSFDYYDFVQRIMAK
